The values below come from patent publication US20200384066A1.

This assay has as its target angiogenin (UniProt P03950). In words: phage ELISA; angiogenin coated at 4 ug/mL, negative control phage, anti-g8p antibody and HRP secondary.

Chain of angiogenin (P03950 25-147 limits assumed): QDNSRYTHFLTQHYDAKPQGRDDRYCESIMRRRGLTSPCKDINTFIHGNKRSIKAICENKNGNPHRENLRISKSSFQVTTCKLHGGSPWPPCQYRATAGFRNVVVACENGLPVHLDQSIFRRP

wild type phage yielded an OD value (450 nm) of 0.191 OD.
